As a reminder, the Kd is the constant that tells how readily two partners part at equilibrium. A low value points to higher affinity.

What all share (test): Kd (EC50 corrected by depletion factor)
One series concerns the target SRSF10 (UniProt O75494). In short, it runs like this:
(§1)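 HEK293-FT lysate (2.5 mg protein/well) was treated with free RNA oligos (0 nM to 30 μM) for 1 h at 4°C, then with the same oligos on NHS-Sepharose beads for 30 min at 4°C. Bound proteins were quantified by label-free LC-MS/MS relative to the control. EC50 came from a four-parameter log-logistic fit, and Kd is EC50 times a protein-dependent depletion factor.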

A further series has as its target T1, CPSF7 (UniProt Q8N684).
T1 sequence: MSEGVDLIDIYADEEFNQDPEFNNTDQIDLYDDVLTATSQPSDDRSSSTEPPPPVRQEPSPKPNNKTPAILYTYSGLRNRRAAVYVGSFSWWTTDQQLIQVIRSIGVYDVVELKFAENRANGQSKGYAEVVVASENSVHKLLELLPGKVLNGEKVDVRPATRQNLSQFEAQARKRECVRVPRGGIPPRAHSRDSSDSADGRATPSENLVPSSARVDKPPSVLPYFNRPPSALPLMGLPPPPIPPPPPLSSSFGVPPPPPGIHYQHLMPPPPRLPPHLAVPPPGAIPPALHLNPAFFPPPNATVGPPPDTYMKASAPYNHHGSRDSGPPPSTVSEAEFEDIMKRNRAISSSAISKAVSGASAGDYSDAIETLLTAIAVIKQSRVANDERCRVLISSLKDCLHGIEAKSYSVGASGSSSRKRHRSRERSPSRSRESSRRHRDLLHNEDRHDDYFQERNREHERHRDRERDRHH
The gist of the method: as §1

The target of the next series is P4HA1 (UniProt P13674). In short, it runs like this: as §1
Chain of P4HA1 (P13674 whole entry): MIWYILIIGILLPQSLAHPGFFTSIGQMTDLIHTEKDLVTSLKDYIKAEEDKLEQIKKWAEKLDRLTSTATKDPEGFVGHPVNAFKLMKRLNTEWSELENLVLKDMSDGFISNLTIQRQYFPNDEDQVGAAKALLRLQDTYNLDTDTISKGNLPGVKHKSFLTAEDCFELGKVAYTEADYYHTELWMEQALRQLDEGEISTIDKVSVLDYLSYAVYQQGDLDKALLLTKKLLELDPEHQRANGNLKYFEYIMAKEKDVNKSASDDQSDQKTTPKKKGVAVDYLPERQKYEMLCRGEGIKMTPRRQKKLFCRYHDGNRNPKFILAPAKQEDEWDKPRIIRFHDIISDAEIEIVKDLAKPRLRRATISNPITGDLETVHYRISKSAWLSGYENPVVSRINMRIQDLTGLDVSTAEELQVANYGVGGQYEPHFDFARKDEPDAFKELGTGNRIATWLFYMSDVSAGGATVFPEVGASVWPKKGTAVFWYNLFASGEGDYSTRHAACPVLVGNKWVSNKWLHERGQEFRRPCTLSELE
Another series has as its target T2, RBM14 (UniProt Q96PK6).
T2 sequence: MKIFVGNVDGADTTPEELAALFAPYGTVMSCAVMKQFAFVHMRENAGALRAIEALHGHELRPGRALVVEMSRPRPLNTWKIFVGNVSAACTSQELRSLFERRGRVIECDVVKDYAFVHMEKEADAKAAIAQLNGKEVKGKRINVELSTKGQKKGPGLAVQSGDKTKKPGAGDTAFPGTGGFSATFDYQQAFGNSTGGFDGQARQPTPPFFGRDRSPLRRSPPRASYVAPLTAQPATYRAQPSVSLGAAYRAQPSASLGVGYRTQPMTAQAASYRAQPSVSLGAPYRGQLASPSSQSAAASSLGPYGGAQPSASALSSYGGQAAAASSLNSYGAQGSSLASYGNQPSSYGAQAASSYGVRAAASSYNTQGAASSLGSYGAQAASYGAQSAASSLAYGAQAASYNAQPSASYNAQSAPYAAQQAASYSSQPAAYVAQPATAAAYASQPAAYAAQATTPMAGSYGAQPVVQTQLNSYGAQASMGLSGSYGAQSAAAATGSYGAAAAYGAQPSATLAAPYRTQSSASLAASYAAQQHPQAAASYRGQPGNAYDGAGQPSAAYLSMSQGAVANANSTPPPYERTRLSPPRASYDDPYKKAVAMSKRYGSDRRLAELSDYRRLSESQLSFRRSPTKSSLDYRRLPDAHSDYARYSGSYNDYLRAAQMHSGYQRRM
The gist of the method: as §1

For a further series, the target named is TUBB2A (UniProt Q13885). The gist of the method: as §1
Chain of TUBB2A (Q13885 whole entry): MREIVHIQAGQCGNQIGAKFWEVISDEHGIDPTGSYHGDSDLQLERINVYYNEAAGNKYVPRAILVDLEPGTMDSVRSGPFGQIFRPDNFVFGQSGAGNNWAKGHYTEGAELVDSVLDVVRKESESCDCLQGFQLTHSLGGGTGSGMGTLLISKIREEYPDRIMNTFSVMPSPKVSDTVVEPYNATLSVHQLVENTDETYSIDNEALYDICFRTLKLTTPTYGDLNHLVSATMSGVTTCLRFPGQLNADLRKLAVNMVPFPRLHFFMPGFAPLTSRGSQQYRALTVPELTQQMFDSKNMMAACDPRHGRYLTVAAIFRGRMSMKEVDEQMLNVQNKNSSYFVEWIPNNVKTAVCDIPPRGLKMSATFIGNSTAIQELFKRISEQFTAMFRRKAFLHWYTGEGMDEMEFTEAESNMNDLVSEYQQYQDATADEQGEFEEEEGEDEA
The next series has as its target T3, TIA1 (UniProt P31483).
T3 sequence: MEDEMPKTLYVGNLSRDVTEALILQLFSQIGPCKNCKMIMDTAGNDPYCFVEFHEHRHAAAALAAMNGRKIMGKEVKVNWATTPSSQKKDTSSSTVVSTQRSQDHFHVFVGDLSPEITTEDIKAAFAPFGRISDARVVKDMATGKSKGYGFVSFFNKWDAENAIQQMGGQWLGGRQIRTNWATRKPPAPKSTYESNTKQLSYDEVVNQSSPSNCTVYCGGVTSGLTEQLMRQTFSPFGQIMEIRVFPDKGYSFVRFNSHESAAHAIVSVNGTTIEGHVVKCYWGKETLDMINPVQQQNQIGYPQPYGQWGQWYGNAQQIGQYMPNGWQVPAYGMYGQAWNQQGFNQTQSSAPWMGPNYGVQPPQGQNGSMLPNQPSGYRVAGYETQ
In short, it runs like this:
as §1

For the next series, the target named is RPS25 (UniProt P62851). In short, it runs like this:
as §1

The target of a further series is MRPL43 (UniProt Q8N983). In short, it runs like this:
as §1

In the next series the target is T4, MEX3C (UniProt Q5U5Q3).
T4 sequence: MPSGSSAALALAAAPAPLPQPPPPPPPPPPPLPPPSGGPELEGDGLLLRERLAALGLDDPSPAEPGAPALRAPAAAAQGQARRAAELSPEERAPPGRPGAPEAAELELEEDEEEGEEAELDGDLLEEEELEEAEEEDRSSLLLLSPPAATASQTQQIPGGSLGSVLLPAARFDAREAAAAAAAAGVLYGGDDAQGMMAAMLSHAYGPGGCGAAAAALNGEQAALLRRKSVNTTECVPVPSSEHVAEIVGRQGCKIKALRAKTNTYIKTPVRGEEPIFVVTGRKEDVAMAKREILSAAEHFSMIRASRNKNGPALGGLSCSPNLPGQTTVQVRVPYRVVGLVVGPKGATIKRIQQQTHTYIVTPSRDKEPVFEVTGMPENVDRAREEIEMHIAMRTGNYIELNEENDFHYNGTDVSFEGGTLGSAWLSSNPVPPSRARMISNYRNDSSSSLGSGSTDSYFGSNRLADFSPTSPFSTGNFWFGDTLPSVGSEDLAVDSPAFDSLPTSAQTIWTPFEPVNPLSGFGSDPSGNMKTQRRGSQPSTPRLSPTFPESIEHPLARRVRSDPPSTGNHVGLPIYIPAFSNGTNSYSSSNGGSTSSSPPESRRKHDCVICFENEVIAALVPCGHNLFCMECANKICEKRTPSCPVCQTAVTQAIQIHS
In short, it runs like this: as §1

A further series deals with DAP3 (UniProt P51398). In short, it runs like this: as §1

Chain of SRSF10 (O75494 whole entry): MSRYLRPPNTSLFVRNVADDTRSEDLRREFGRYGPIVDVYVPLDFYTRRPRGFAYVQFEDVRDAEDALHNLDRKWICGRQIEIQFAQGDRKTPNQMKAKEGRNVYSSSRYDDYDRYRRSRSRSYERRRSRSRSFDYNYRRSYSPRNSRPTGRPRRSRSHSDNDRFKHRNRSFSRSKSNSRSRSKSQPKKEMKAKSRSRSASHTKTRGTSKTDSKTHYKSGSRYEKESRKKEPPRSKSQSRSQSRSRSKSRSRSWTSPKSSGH

With AAUAAA, the Kd came out at 156 nM in the series with SRSF10; 2100 nM with CPSF7; 23.8 nM in the series with P4HA1; 600 nM with RBM14; 1030 nM with TUBB2A; 158 nM in the series with TIA1.
Take CUGUCCU: the Kd with RPS25 stood at 25.2 nM; with MRPL43 it was 40.4 nM.
In the case of UAUUUAU, the Kd with MEX3C worked out at 339 nM; with DAP3, 37.4 nM.

For the origin of these results see the supplement of paper PMC6379048.
